From publication PMC9233711, “Wiskott-Aldrich syndrome protein forms nuclear condensates and regulates alternative splicing” (Nature Communications, 2022)

T1: recombinant human full-length SRSF2, N-terminally 8X histidine- and SUMO-tagged and C-terminus Strep-tagged (human, UniProt Q01130 1-221, RED-tris-NTA dye on the His tag)
T1 chain: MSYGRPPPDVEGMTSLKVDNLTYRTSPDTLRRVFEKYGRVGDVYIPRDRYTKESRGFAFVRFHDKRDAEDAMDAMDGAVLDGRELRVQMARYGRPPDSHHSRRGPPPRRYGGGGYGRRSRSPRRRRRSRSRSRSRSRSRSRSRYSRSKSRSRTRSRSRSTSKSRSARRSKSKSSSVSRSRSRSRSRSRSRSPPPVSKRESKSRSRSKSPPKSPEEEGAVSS

T2: recombinant WASP, full-length (1-502 a.a.) with a GST tag at the N-terminus (human, UniProt P42768 1-502)
T2 construct: Wiskott-Aldrich syndrome protein (WASP), human, full-length protein, 1-502 a.a; source: bought: Abnova (in vitro wheat germ expression system, purified by Glutathione Sepharose 4 Fast Flow); not shown: GST, N-terminal, kept
T2 sequence (looked up): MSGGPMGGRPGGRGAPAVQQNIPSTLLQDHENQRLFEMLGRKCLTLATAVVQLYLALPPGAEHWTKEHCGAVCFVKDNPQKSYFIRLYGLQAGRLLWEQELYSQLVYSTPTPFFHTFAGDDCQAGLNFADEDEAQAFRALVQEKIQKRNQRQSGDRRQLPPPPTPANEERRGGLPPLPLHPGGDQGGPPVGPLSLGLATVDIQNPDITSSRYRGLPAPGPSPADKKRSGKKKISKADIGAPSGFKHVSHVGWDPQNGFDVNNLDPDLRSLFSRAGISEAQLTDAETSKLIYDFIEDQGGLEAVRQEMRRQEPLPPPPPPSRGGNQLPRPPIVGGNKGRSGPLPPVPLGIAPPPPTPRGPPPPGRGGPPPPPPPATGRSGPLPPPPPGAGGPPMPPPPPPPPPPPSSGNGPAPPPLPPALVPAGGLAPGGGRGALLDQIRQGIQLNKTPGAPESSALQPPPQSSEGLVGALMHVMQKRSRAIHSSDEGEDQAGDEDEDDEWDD


Columns and labels:
[1] = biological target: T1, recombinant human full-length SRSF2, …; experiment: MST
[2] = biological target: T2, recombinant WASP, full-length (1-502 …); experiment: MST; Monolith NT.115; SRSF2 labelled with RED-tris-NTA at 1 nM, WASP titrated 90 pM to 3 µM; 50 mM HEPES pH 7.5, 10 mM MgCl2, 100 mM KCl, 0.1 mg/ml BSA, 5% glycerol, 1 mM DTT; details: both partners purified

Row | Binder | Kd [1] [nM] | binding result [2]
1 | recombinant WASP, full-length (1-502 a.a.) with a GST tag at the N-terminus (natural protein) MSGGPMGGRPGGRGAPAVQQNIPSTLLQDHENQRLFEMLGRKCLTLATAVVQLYLALPPGAEHWTKEHCGAVCFVKDNPQKSYFIRLYGLQAGRLLWEQELYSQLVYSTPTPFFHTFAGDDCQAGLNFADEDEAQAFRALVQEKIQKRNQRQSGDRRQLPPPPTPANEERRGGLPPLPLHPGGDQGGPPVGPLSLGLATVDIQNPDITSSRYRGLPAPGPSPADKKRSGKKKISKADIGAPSGFKHVSHVGWDPQNGFDVNNLDPDLRSLFSRAGISEAQLTDAETSKLIYDFIEDQGGLEAVRQEMRRQEPLPPPPPPSRGGNQLPRPPIVGGNKGRSGPLPPVPLGIAPPPPTPRGPPPPGRGGPPPPPPPATGRSGPLPPPPPGAGGPPMPPPPPPPPPPPSSGNGPAPPPLPPALVPAGGLAPGGGRGALLDQIRQGIQLNKTPGAPESSALQPPPQSSEGLVGALMHVMQKRSRAIHSSDEGEDQAGDEDEDDEWDD | 211 | 
2 | recombinant human full-length SRSF2, N-terminally 8X histidine- and SUMO-tagged and C-terminus Strep-tagged (natural protein, UniProt Q01130 1-221, looked up, RED-tris-NTA dye on the His tag, No tag cleavage step is described in the purification, so SUMO and Strep were probably still on the protein; The MST methods call it His6-tagged, the expression methods 8X histidine; also called His6-tagged SRSF2; recombinant SRSF2; source: E. coli BL21 (DE3), purified (HisTrap HP, dialysis); not shown: His8, N-terminal, kept) MSYGRPPPDVEGMTSLKVDNLTYRTSPDTLRRVFEKYGRVGDVYIPRDRYTKESRGFAFVRFHDKRDAEDAMDAMDGAVLDGRELRVQMARYGRPPDSHHSRRGPPPRRYGGGGYGRRSRSPRRRRRSRSRSRSRSRSRSRSRYSRSKSRSRTRSRSRSTSKSRSARRSKSKSSSVSRSRSRSRSRSRSRSPPPVSKRESKSRSRSKSPPKSPEEEGAVSS |  | binds
